We go through two sequences from article PMC7026483.

The target of the series is T1, GlxR-A131T A131T (Corynebacterium glutamicum WT (ATCC 13032?)) (UniProt Q79VI7).
T1 sequence: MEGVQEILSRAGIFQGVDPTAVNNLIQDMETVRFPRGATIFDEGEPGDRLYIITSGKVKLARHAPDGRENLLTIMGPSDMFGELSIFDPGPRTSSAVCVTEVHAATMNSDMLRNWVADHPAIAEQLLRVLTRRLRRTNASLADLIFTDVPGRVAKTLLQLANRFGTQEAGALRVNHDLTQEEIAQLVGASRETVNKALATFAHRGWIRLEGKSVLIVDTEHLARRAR
The series can be described thus: EMSA. The conditions noted are these: EMSA: 100 ng DNA, 200 nM protein, with or without 0.2 mM cAMP, 30 min, room temperature, 10% native PAGE; binding buffer as in Bussmann et al. 2009 (not …).

On to “CTTCCTGGCGAAATGTCCGTCAAATTGTGAACCCCTTCACACCTTTGGTTAAAAGTCACTGCCCACAAGTGACTGAACCTGGCAGCGACCTCATGAATTGTTTGAAAAACATTTTTTTTGGGCATGAAAAGGGGATACAG (double strand) [ctaD promoter fragment]”, for which the binding entry is listed as “binds”.

“GGTGGAAATATCTTCGTGGGTTTCGTTTTTAGGGGCGTCAAATGTCTTTCAACTGCAACGATATGCCCGAATCCTCAGGTGGAATACCTAAAGTCTAGGCAATTGGTGTATGCCACGTCACAGACCATCAAC (double strand) [ctaCF promoter fragment]”: the binding result was “binds”.
